Measurements published in IntAct's records for PubMed 29039417.

B1: Protein PTHB1 (Homo sapiens), Q3SYG4 (parent)
chain: MSLFKARDWWSTILGDKEEFDQGCLCLANVDNSGNGQDKIIVGSFMGYLRIFSPHPAKTGDGAQAEDLLLEVDLRDPVLQVEVGKFVSGTEMLHLAVLHSRKLCVYSVSGTLGNVEHGNQCQMKLMYEHNLQRTACNMTYGSFGGVKGRDLICIQSMDGMLMVFEQESYAFGRFLPGFLLPGPLAYSSRTDSFLTVSSCQQVESYKYQVLAFATDADKRQETEQQKLGSGKRLVVDWTLNIGEQALDICIVSFNQSASSVFVLGERNFFCLKDNGQIRFMKKLDWSPSCFLPYCSVSEGTINTLIGNHNNMLHIYQDVTLKWATQLPHIPVAVRVGCLHDLKGVIVTLSDDGHLQCSYLGTDPSLFQAPNVQSRELNYDELDVEMKELQKIIKDVNKSQGVWPMTEREDDLNVSVVVSPNFDSVSQATDVEVGTDLVPSVTVKVTLQNRVILQKAKLSVYVQPPLELTCDQFTFEFMTPDLTRTVSFSVYLKRSYTPSELEGNAVVSYSRPTDRNPDGIPRVIQCKFRLPLKLICLPGQPSKTASHKITIDTNKSPVSLLSLFPGFASQSDDDQVNVMGFHFLGGARITVLASKTSQRYRIQSEQFEDLWLITNELILRLQEYFEKQGVKDFACSFSGSIPLQEYFELIDHHFELRINGEKLEELLSERAVQFRAIQRRLLARFKDKTPAPLQHLDTLLDGTYKQVIALADAVEENQGNLFQSFTRLKSATHLVILLIALWQKLSADQVAILEAAFLPLQEDTQELGWEETVDAAISHLLKTCLSKSSKEQALNLNSQLNIPKDTSQLKKHITLLCDRLSKGGRLCLSTDAAAPQTMVMPGGCTTIPESDLEERSVEQDSTELFTNHRHLTAETPRPEVSPLQGVSE
partner: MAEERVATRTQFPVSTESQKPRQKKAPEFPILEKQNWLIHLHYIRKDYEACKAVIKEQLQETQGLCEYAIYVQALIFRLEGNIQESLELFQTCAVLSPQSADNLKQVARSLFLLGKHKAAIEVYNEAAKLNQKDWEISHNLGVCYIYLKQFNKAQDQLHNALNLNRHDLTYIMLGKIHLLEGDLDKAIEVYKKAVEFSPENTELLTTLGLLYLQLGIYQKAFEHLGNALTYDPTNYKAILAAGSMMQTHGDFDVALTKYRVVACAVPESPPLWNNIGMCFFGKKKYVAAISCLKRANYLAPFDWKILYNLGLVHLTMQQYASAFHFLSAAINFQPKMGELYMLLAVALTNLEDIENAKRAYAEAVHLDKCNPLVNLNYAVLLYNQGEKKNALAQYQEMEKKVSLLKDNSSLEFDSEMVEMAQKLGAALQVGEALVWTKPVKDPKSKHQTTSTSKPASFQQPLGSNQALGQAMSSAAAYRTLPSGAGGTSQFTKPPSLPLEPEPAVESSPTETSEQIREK

Variants of: B1
Conditions: with bbs4_human BBS4, Q96RK4

Row | effect of a mutation on the interaction | Variant
1 | with no effect | R854K
2 | with no effect | R854A
3 | with no effect | R854E
4 | with no effect | G822K
5 | with no effect | G822A
6 | with no effect | G822E
7 | disrupting interaction strength | P802T
8 | with no effect | P802K
9 | with no effect | P802E
10 | with no effect | P802A
11 | with no effect | A831K
12 | with no effect | A831E
13 | with no effect | G823E
14 | with no effect | G823K
15 | with no effect | G823A
16 | with no effect | S828K
17 | with no effect | S828E
18 | with no effect | S828A
19 | with no effect | K809E
20 | with no effect | K809A
21 | with no effect | T805E
22 | with no effect | T805A
23 | with no effect | T805K
24 | with no effect | S855A
25 | with no effect | S855E
26 | with no effect | S855K

Row | effect of a mutation on the interaction | Variant
27 | with no effect | Q835E
28 | with no effect | Q835K
29 | with no effect | Q835A
30 | disrupting interaction strength | Q835M
31 | with no effect | L827A
32 | with no effect | L827E
33 | with no effect | L827K
34 | with no effect | G841K
35 | with no effect | G841A
36 | with no effect | G841E
37 | disrupting interaction strength | C826R
38 | with no effect | C826K
39 | with no effect | C826E
40 | with no effect | C826A
41 | with no effect | L851E
42 | with no effect | L851K
43 | with no effect | L851A
44 | with no effect | D830E
45 | with no effect | D830A
46 | with no effect | D830K
47 | with no effect | R824A
48 | with no effect | R824E
49 | with no effect | R824K
50 | with no effect | K803E
51 | with no effect | K803A
52 | with no effect | I846E

Row | effect of a mutation on the interaction | Variant
53 | with no effect | I846K
54 | with no effect | I846A
55 | with no effect | D817E
56 | with no effect | D817K
57 | with no effect | D817A
58 | with no effect | P847A
59 | with no effect | P847E
60 | with no effect | P847K
61 | disrupting interaction strength | D804F
62 | with no effect | D804E
63 | with no effect | D804K
64 | with no effect | D804A
65 | with no effect | K810A
66 | with no effect | K810E
67 | with no effect | M839K
68 | disrupting interaction strength | M839E
69 | disrupting interaction strength | M839A
70 | with no effect | E848A
71 | with no effect | E848K
72 | disrupting interaction strength | P840A
73 | with no effect | P840E
74 | with no effect | P840K
75 | disrupting interaction strength | P840S
76 | disrupting interaction strength | V838E
77 | disrupting interaction strength | V838K
78 | disrupting interaction strength | V838A

Row | effect of a mutation on the interaction | Variant
79 | with no effect | S820A
80 | with no effect | S820E
81 | with no effect | S820K
82 | with no effect | S806K
83 | with no effect | S806E
84 | with no effect | S806A
85 | with no effect | G842K
86 | with no effect | G842E
87 | with no effect | G842A
88 | with no effect | Q807K
89 | with no effect | Q807E
90 | with no effect | Q807A
91 | with no effect | V856E
92 | with no effect | V856A
93 | with no effect | V856K
94 | disrupting interaction strength | Q798K
95 | with no effect | T813K
96 | with no effect | T813A
97 | with no effect | T813E
98 | with no effect | D850K
99 | with no effect | D850A
100 | with no effect | D850E
101 | with no effect | R818E
102 | with no effect | R818A
103 | with no effect | R818K
104 | disrupting interaction strength | R818T

Row | effect of a mutation on the interaction | Variant
105 | with no effect | A832K
106 | with no effect | A832E
107 | with no effect | D859A
108 | disrupting interaction strength | A833S
109 | with no effect | A833K
110 | with no effect | A833E
111 | with no effect | E852K
112 | with no effect | E852A
113 | with no effect | L815E
114 | with no effect | L815A
115 | with no effect | L815K
116 | with no effect | I801K
117 | disrupting interaction strength | I801A
118 | with no effect | I801E
119 | with no effect | L808K
120 | with no effect | L808E
121 | with no effect | L808A
122 | with no effect | S849K
123 | with no effect | S849E
124 | with no effect | S849A
125 | disrupting interaction strength | M837I
126 | with no effect | M837A
127 | with no effect | M837K
128 | with no effect | M837E
129 | with no effect | L799A
130 | with no effect | L799E

Row | effect of a mutation on the interaction | Variant
131 | with no effect | L799K
132 | with no effect | C816E
133 | with no effect | C816K
134 | with no effect | C816A
135 | with no effect | T844A
136 | with no effect | T844E
137 | with no effect | T844K
138 | with no effect | E857A
139 | with no effect | E857K
140 | with no effect | K821E
141 | with no effect | K821A
142 | with no effect | L819K
143 | with no effect | L819E
144 | with no effect | L819A
145 | with no effect | P834A
146 | with no effect | P834K
147 | with no effect | P834E
148 | with no effect | T845A
149 | with no effect | T845E
150 | with no effect | T845K
151 | with no effect | T829K
152 | with no effect | T829A
153 | with no effect | T829E
154 | with no effect | L814E
155 | with no effect | L814K
156 | with no effect | L814A

Row | effect of a mutation on the interaction | Variant
157 | with no effect | L825K
158 | with no effect | L825E
159 | with no effect | L825A
160 | with no effect | Q858K
161 | with no effect | Q858A
162 | with no effect | Q858E
163 | with no effect | I812E
164 | with no effect | I812A
165 | with no effect | I812K
166 | with no effect | C843E
167 | with no effect | C843K
168 | with no effect | C843A
169 | with no effect | T836K
170 | with no effect | T836E
171 | with no effect | T836A
172 | with no effect | E853K
173 | with no effect | E853A
174 | with no effect | N800E
175 | with no effect | N800A
176 | with no effect | N800K
177 | with no effect | H811E
178 | with no effect | H811K
179 | with no effect | H811A
